Biological target: Arp2/3 complex (bovine brain) (bovine) (UniProt P61157)
Test: ITC; full-length Arpin in the syringe, ATP-bound Arp2/3 complex in the cell; 25 °C; Arp buffer (20 mM HEPES pH 7.5, 100 mM KCl, 1 mM MgCl2, 1 mM EGTA, 1 mM DTT) with 0.2 mM ATP; one-site isotherm

## full-length human Arpin (from UniProt Q7Z6K5 1-226) (natural protein)
  Kd: 1240 nM
  stoichiometry N: 1.06
